Reference: the DeepSol protein solubility set

Assay: soluble on expression in E. coli; label from the status in PepcDB or PDB records
For “MGSDKIHHHHHHMLMPDAPSNTESLPTSVDLAGEYQASGVAEILDELDRELVGLKPVKQRIRETAALLLVERARRAMGLSHEPPSLHMSFTGNPGTGKTTVALRMANLLHRLGYIRKGHLVSVTRDDLVGQYIGHTAPKTKEILKKAMGGVLFIDEAYYLYRPDNERDYGQEAIEILLQVMENNRDDLVVILAGYADRMDRFFESNPGFRSRIAHHIDFPDYDNGELLSIAESMLSRQGYRFDSKASAVMSDYIARRRRQPHFANARSIRNALDRARLRQANRLFEESAGPVDAEQLSTITARDIAASRVFATVEPSHTETSP”, the “soluble on expression in E. coli” value was “not soluble”. In the case of “ALIDVVVVCDESNSIYPWDAVKNFLEKFVQGLDIGPTKTQVGLIQYANNPRVVFNLNTYKTKEEMIVATSQTSQYGGDLTNTFGAIQYARKYAYSAASGGRRSATKVMVVVTDGESHDGSMLKAVIDQCNHDNILRFGIAVLGYLNRNALDTKNLIKEIKAIASIPTERYFFNVSDEAALLEKAG”, the “soluble on expression in E. coli” value was “soluble”. With “MYEIPWSKPVNINMLDGRCRTVVGPLDAMHCLQSEWPVRDGAYYGCAIRACNAALKRRKRPEDARAAFIAALREAFLTVVPMQEEGHGPRPLE” the “soluble on expression in E. coli” value was “not soluble”. In the case of “SLAQLDKNDPARGVLAAIAANASKIAEYDPRVRADEYDSVHQMRVATRELRSHLQTFEGILGGEDYLNLEKELKVLANILGRARDAEVVEERLSNLINTEVGDSIEEETKKELLEDLGAEYRREHERVVRALDNDRYTDLLQALENLLVDPPLITEVEEPEATEAPESAETTESTDVSEATEEADAEAESVEEATEQEESADAPESADLDALDEEYSPGSQAPVEEPKEPKKVDAALVLLEHLDKAHVKLVKLEKKARSQWDDLSIPMLEREENFHNLRKAAKKLRYSAEAVGKATTVETKKLYKACSGLQSVLGDYQDAITSRNELLRRAQVARRQGRDTFAYGILYQHEQTLSREYLTGYSDAFKSVEKAYAKLAEDTAKRSKKNKRK”, the “soluble on expression in E. coli” value was “soluble”. With “MGSDKIHHHHHHMMSAVADIQECRDFLAAHPQVKFVEVFFTSMTGVPRGKRLRVHELEAIYEYGRFLPGSVLVVDTNGADCEDTGLVWEDGDADRRARPVPGTLTLAPWLGPDVAQVMLSLYELDGTPNDLDPRHVLQRVLDRYAADGLTPVAACELEYYLVDLQRGPNGELLPAKSLQTGLRPTGIQVYGLPELEAHAPFLRELWDVADTLGVPLEGAISEFAPAQVELTLKHKPDALRAADDAVLYKRAAKGVALRHGMEATFMAKPWSDRAGNGFHVHLSVNDAAGNNLCASEDIEGSDLLKHAIGGMKVLLGEGMAILAPNANSYRRFKANSYAPVAPTWGVNNRTVSLRVPAGPPKTRHVEHRVAGADGNPYLVLAVLLASAHHGITNKIDPGPAVIGDGYAAAAKENIRLPNNWFAAVDLFEQSSVLRDYLGDRFVDMFVSVKRTEQARFFEVVTELDFDWYLRNA” the “soluble on expression in E. coli” value was “not soluble”. In the case of “MFIESRELVMKHRIPVAKTERYWKGLEEGKVFKTVCKSCGKEHHPPRAECLCGGEVEWVEITGEGVVEAFTTVHTIPAGFEWHREPYTIAIARFGEVRVMGWAKEVRVGDVVRLKPGKDETGVWKVYFEVV”, the “soluble on expression in E. coli” value was “not soluble”. In the case of “SLLKLAIPKGRLEEKVMTYLKKTGVIFERESSILREGKDIVCFMVRPFDVPTYLVHGVADIGFCGTDVLLEKETSLIQPFFIPTNISRMVLAGPKGRGIPEGEKRIATKFPNVTQRYCESKGWHCRIIPLKGSVELAPIAGLSDLIVDITETGRTLKENNLEILDEIFVIRTHVVVNPVSYRTKREEVVSFLEKLQEVIEHDSNEQSRGEGGSHHHHHH”, the “soluble on expression in E. coli” value was “soluble”. In the case of “MNRPHSATGDRPLALVDEHAHAWSPKTARARFRKGLTGPTAGVAAGHTQANLISVPADWAYDMLLFCTRNPQPCPVLDVTDAGSWTTVLADGADLRTDLPRYRVWRDGELVDEPSDVREHWRDDLVTFLIGCSFTFEWALAAAGVPIRHVEQGRNVPMYVTSRACRPAGRLRGPMVVSMRPVPPAHLSAAIHESSLLPAVHGSPVHCGDPSALGIDDLDRPDFGEAVYREPDDIPVFWACGVTPQAAVMASRPPFALTHAPGQMFLTDARDEQYRVALEHHHHHH”, the “soluble on expression in E. coli” value was “soluble”. With “MGSDKIHHHHHHMKIGILTFHDAHNYGAMLQCYALQQFLFKKGYNVEVIDYRPAFYQKQYHRHSLCPWIGKNPVRTMKSIYYNYYLFNKRCAAFSDFHNRHLYMSIPATRTNIPQSYDAYIVGSDQIWNPQLTNGFHDVYFCDFCFPKGKSRFIAYAPSMEISRLSTQEAEYLTRVLNCFDALSVRESSLIPILQPLVSQPIQQVLDPTLLLDATAWNPLIGKCPKNRPYVVLYQVRENPAVRMKAFEIAQSIGGIVVELTARIDCHYSTKYQTASPADFVTYIRYATYVVTTSFHGTAFSLIFNRPFYTFSLGDNFDSRSASLLESVNLTERLVCPDEQFEISLIDFKQANKRLKHLRKQSCDFLRQSLHERQEQ” the “soluble on expression in E. coli” value was “not soluble”. In the case of “MGSDKIHHHHHHMISVGKGKIMITPDHNIIKPIAIVLPQFHPIRENNLWWGEGFTEWTNVVKGRPRFRGHYQPHLPKDLGYYDLRLPETRKAQAALATKYGIYGFCYYHYWFNGRRILESPVDAMLESGEPDFPFMLCWANENWTRNWDGSYNKVLLEQKYSKEDFVNHARHLIRYFKDDRYIKIDGRPVFAIYKDDIGEDIEKYLLLFRNELLKNSINVFLCRFERNIGTSRDLNRAFQVFDAGIEFQPLARQFSYLINYNNRLSRRIYKTLKKHFCFCKNIDDVYVYSHLVDNDLKYDFQQGWPIFPGVCPGWDNSARRRDTTAIIFDKSTPEIFKLWVREKIRITDWNLLPERFLFVNAWNEWAEGNHLEPCEKWGTQYLAALQAGINEM”, the “soluble on expression in E. coli” value was “not soluble”. With “VFALSNNLNRVNACMDGFLARIRSHVDAHAPELRSLFDTMAAEARFARDWLSEDLARLPVGAALLEVGGGVLLLSCQLAAEGFDITAIEPTGEGFGKFRQLGDIVLELAAARPTIAPCKAEDFISEKRFDFAFSLNVMEHIDLPDEAVRRVSEVLKPGASYHFLCPNYVFPYEPHFNIPTFFTKELTCRVMRHRIEGNTGMDDPKGVWRSLNWITVPKVKRFAAKDATLTLRFHRAMLVWMLERALTDKEFAGRRAQWMVAAIRSAVKLRVHHLAGYVPATLQPIMDVRLTKR” the “soluble on expression in E. coli” value was “not soluble”. For “PVKVVVGKTFDAIVMDPKKDVLIEFYAPWCGHCKQLEPIYTSLGKKYKGQKDLVIAKMDATANDITNDQYKVEGFPTIYFAPSGDKKNPIKFEGGNRDLEHLSKFIDEHATKRSRTKEEL”, the “soluble on expression in E. coli” value was “soluble”. With “MQPLERSLTGAVGAALAAAGLRSRSGLEKVVLTGLGAGLIAVAARGQNPLATALKIEQNDEGETVVRDAVTIGKPAEQLYAVWRDLPGLPLLMTHLRSVEVLDDKRSRWTVEAPAPLGTVSWEAELTADEPGKRIAWRSLPGARIENSGEVLFRPAPGARGTEVVVRLTYRPPGGSAGAVIARMFNQEPSQQLRDDLMRFKREQELGLEHHHHHH” the “soluble on expression in E. coli” value was “not soluble”. In the case of “MGSDKIHHHHHHMFFEIALIGTTASGKTYIANTLAREFNAVVLSLDSLCVYKEINIASAKPSQDDLASIKYFGVNLLSVNEHFNVELFIREYQKAKEFALARNLPLIIVGGTGFYLKTMIDGLSEKTLESKSSLNNDEIYALLLNIDPNYKIEKNDTYRLKKWLGIYEQTREIPSEFLKRTQKTGVLKDIEIYELAWDKEILKKRIKTRTKEMLDNGLLDEAKILFSKFDHKLKALNSIGLKECKEYLDGEISFKELENLITIHTTQLAKRQRTFNKKFQSKALEFDKALATLRMKFSIEK”, the “soluble on expression in E. coli” value was “not soluble”. In the case of “MMNKKEARTLIKERRMNLSKEYIDVASDKIFEKLLQNEDFKNVKTVMSYMDFKNEVKTDRINTFIKNSGKILVLPKVVDKETMIVIEDKNQYIVSPFGNKEPDGEEYKGSIDVIITPGVAFDRDKNRVGFGRGYYDRFFVKQPNAKKIAIAFEKQIIDEGIETDKYDKKVDILITEDEIIKLEHHHHHH”, the “soluble on expression in E. coli” value was “soluble”.
